Data reported in PMC5454392, “Selective BET bromodomain inhibition as an antifungal therapeutic strategy” (Nature Communications, 2017).
pIC50: −log10 of the molar value. Where “and” joins values, the source holds several entries; their conditions need not be identical. Equal values may be shown once. Read-outs that look alike come from different tables or passages of the source.

Key:
[1] = tested on: 32 representative human (BET and non-BET) BDs; set-up: method as in earlier work; conditions: cited from earlier work
human Brd4 BD1 = human Brd4 BD1 (Homo sapiens, UniProt O60885); test: Isothermal titration calorimetry (ITC); type: binding; set-up: human Brd4 BD1 (residues 22–204); His tag with TEV site (N, cleaved yes); made in house; host or cells: E. coli BL21(DE3); conditions: ITC, 25 °C
Method: (§1) Proteins used for crystallization and for ITC. […] Cells were resuspended in buffer A (50 mM Tris-HCl pH 7.5, 300 mM NaCl, 10% glycerol, 25 mM imidazole, 5 mM β-mercaptoethanol and protease inhibitors) and lysed by sonication. The cleared lysate was incubated with Ni-NTA resin (Qiagen) and washed with buffer A containing 0.5 M NaCl. Proteins were eluted with 250 mM imidazole, dialysed overnight in the presence of His-tagged TEV protease against buffer A containing no imidazole and incubated with Ni-NTA resin to remove His-tagged species. Proteins were further purified on a Superdex 75 10/300 (GE Healthcare) column in 50 mM Hepes pH 7.5, 150 mM NaCl, 0.5 mM dithiothreitol (DTT). Proteins were concentrated to >20 mg ml^−1 on a Centricon device (Millipore) and used for ITC, TSA and crystallization experiments. […] Expression and purification were performed as above, except that buffer A was replaced by buffer B (50 mM Hepes pH 7.5, 500 mM NaCl, 5% glycerol, 5 mM imidazole and protease inhibitors) and gel filtration was performed in 10 mM Hepes pH 7.5, 500 mM NaCl and 5% glycerol.
(§2) Calorimetric experiments were performed on a NanoITC calorimeter (TA Instruments) at 25 °C while stirring at 250 r.p.m. All proteins were buffer exchanged by gel filtration into 50 mM Hepes pH 7.5, 150 mM NaCl, 0.5 mM DTT, except for SMARCA2 and SMARCA4A BDs, which were exchanged into 10 mM Hepes pH 7.5, 500 mM NaCl and 5% glycerol. […] Titrations consisted of an initial injection of 1.5 μl followed by 19 identical injections of 2.5 μl made at time intervals of 5 min. ITC data were corrected for the heat of dilution of injectant into buffer and analysed with software provided by the manufacturer using a single binding site model. The first data point was excluded from the analysis. Thermodynamic parameters determined from the ITC data are summarized in Supplementary Table 1.

CaBdf1 BD2 [2] = target: T1, CaBdf1 BD2 (Candida albicans, UniProt Q5A4W8); test: Isothermal titration calorimetry (ITC); type: binding; set-up: His tag with TEV site (N, cleaved yes); made in house; host or cells: E. coli BL21(DE3); conditions: ITC
Method: as §1, §2

CaBdf1 BD2 [3] = target: T1, CaBdf1 BD2; test: HTRF assay, inhibition of BD binding to H4ac4 peptide; set-up: made in house; host or cells: E. coli BL21(DE3); conditions: HTRF, H4ac4 peptide; BETi, maximal concentration 10 μM; read-out: IC50 values
CaBdf1 BD1 [4] = target: T2, CaBdf1 BD1 (Candida albicans, UniProt Q5A4W8); test: Isothermal titration calorimetry (ITC); type: binding; conditions: ITC
T2 construct: made in house; host or cells: E. coli BL21(DE3)
Method: as §1, §2

CaBdf1 BD1 [5] = target: T2, CaBdf1 BD1; test: HTRF assay, inhibition of BD binding to H4ac4 peptide; set-up: species or system C. albicans; conditions: IC50 values, HTRF, H4ac4 peptide; BETi, maximal concentration 10 μM
CaBdf1 BD1 [6] = target: T3, CaBdf1 BD1 (Candida albicans, UniProt Q5A4W8); type: binding; conditions: wild-type BD1; for CaBdf1 BD1 Normalized (0 to 100%) WT: normalized array signal; for CaBdf1 BD1 Raw data WT: peptide array signal;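 as to CaBdf1 BD1 Normalized (0 to 100%) WT: normalized to spotted c-myc peptide positive control signal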
T3 construct: made in house; host or cells: E. coli BL21(DE3)
T3 sequence (Q5A4W8 whole entry, looked up): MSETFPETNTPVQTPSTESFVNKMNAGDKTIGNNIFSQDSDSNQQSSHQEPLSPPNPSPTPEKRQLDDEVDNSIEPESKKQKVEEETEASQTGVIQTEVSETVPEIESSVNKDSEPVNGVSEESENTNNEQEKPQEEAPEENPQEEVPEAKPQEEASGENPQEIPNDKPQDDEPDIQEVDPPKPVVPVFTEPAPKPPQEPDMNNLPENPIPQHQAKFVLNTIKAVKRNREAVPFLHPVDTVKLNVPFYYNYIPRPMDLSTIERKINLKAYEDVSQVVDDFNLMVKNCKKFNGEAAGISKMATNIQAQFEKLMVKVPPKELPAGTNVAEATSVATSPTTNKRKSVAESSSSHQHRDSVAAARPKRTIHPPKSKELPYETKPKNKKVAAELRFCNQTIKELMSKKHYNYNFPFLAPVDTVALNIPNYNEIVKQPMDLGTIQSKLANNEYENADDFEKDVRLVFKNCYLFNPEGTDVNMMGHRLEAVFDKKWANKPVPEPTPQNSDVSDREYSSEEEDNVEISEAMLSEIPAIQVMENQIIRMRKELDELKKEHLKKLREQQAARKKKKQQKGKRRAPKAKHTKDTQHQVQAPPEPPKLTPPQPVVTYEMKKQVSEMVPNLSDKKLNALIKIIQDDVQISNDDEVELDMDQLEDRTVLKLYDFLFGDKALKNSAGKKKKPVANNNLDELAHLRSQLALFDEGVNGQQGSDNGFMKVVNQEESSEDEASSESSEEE
Method: (§3) In short, arrays were blocked and incubated with 1 μM of purified CaBdf1 BD1 or BD2. Arrays were incubated with recombinant BDs for 2 h at 4 °C in binding buffer (Tris-HCl 50 mM pH 7.4, NP-40 0.1%, NaCl 150 mM, glycerol 10%). […] Assays were performed in duplicate.

CaBdf1 BD2 [7] = target: T4, CaBdf1 BD2 (Candida albicans, UniProt Q5A4W8); type: binding; conditions: wild-type BD2; for CaBdf1 BD2 Normalized (0 to 100%) WT: normalized array signal; for CaBdf1 BD2 Raw data WT: peptide array signal;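 as to CaBdf1 BD2 Normalized (0 to 100%) WT: normalized to spotted c-myc peptide positive control signal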
T4 construct: made in house; host or cells: E. coli BL21(DE3)
T4 sequence (Q5A4W8 whole entry, looked up): T3 sequence (Q5A4W8 whole entry, looked up)
Method: as §3

CaBdf1 BD1 Y248F = target: T5, CaBdf1 BD1 Y248F (Candida albicans, UniProt Q5A4W8, Y248F); test: Histone peptide microarray binding, YF mutant;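 as to CaBdf1 BD1 Normalized (0 to 100%) YF mutant: normalized to spotted c-myc peptide positive control signal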; set-up: species or system C. albicans; conditions: YF mutant BD1; for CaBdf1 BD1 Normalized (0 to 100%) YF mutant: normalized array signal; for CaBdf1 BD1 Raw data YF mutant: peptide array signal
T5 construct: made in house; host or cells: E. coli BL21(DE3), inferred from the wild-type GST construct
Method: as §3, with “duplicate. Images were acquired on a Bio-Rad ChemiDoc XRS Imaging machine and data were quantified using the array analyser software provided by Active Motif.” for “duplicate.”

CaBdf1 BD2 Y425F = target: T6, CaBdf1 BD2 Y425F (Candida albicans, UniProt Q5A4W8, Y425F); test: Histone peptide microarray binding, YF mutant;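 as to CaBdf1 BD2 Normalized (0 to 100%) YF mutant: normalized to spotted c-myc peptide positive control signal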; set-up: species or system C. albicans; conditions: YF mutant BD2; for CaBdf1 BD2 Normalized (0 to 100%) YF mutant: normalized array signal; for CaBdf1 BD2 Raw data YF mutant: peptide array signal
T6 construct: made in house; host or cells: E. coli BL21(DE3), inferred from the wild-type GST construct
Method: as §3, with “duplicate. Images were acquired on a Bio-Rad ChemiDoc XRS Imaging machine and data were quantified using the array analyser software provided by Active Motif.” for “duplicate.”

T5 sequence (Q5A4W8 193-327 Y248F): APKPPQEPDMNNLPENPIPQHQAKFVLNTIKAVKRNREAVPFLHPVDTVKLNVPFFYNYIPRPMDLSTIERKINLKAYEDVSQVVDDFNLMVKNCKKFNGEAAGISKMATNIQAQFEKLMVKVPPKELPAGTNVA
T6 sequence (Q5A4W8 361-501 Y425F): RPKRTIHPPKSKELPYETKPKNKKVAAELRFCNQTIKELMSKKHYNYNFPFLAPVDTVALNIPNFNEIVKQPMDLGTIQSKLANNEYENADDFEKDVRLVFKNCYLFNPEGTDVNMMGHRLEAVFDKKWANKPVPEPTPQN

Molecule: Cc1sc2c(c1C)C(c1ccc(Cl)cc1)=N[C@@H](CC(=O)NCCCCNC(=O)COc1cccc3c1C(=O)N(C1CCC(=O)NC1=O)C3=O)c1nnc(C)n1-2 (stereo partly drawn) [dBET1]
- BROMOscan signal, percent of control ([1]; CREBBP, EP300, FALZ and SMARCA4): 25-35%
- BROMOscan signal, percent of control ([1]; six BET BDs): 0%
- BROMOscan signal, percent of control ([1]; the other two BET BDs): 0.25% and 1.6%
- BROMOscan signal, percent of control ([1]; the remaining BDs): > 35%

Molecule: Cc1sc2c(c1C)C(c1ccc(Cl)cc1)=N[C@@H](CC(=O)OC(C)(C)C)c1nnc(C)n1-2 [JQ1, reference compound]
- N (stoichiometry) (human Brd4 BD1): 1.00 ± 0.03
- TΔS (human Brd4 BD1): -2.935 kcal/mol
- ΔH (human Brd4 BD1): -12.8 ± 0.12 kcal/mol
- binding to CaBdf1 BD2 (in words) (CaBdf1 BD2 [2]): no binding was detected
- pIC50 (CaBdf1 BD2 [3]): ~5.00
- binding to CaBdf1 BD1 (in words) (CaBdf1 BD1 [4]): no binding was detected
- pIC50 (CaBdf1 BD1 [5]): < 5.00

Molecule: A Rme2s T Kme3 Q T A R Kme1 S T G G K A P R K Q
- CaBdf1 BD1 Normalized (0 to 100%) WT (CaBdf1 BD1 [6]): 0.471%
- CaBdf1 BD1 Raw data WT (CaBdf1 BD1 [6]; first of two raw-data columns): 0.00481
- CaBdf1 BD1 Raw data WT (CaBdf1 BD1 [6]): 0.005879
- CaBdf1 BD2 Normalized (0 to 100%) WT (CaBdf1 BD2 [7]): 0.444%
- CaBdf1 BD2 Raw data WT (CaBdf1 BD2 [7]; first of two raw-data columns): 0.01441
- CaBdf1 BD2 Raw data WT (CaBdf1 BD2 [7]): 0.005491
- CaBdf1 BD1 Normalized (0 to 100%) YF mutant (CaBdf1 BD1 Y248F): 0.831%
- CaBdf1 BD1 Raw data YF mutant (CaBdf1 BD1 Y248F; first of two raw-data columns): 0.00823
- CaBdf1 BD1 Raw data YF mutant (CaBdf1 BD1 Y248F): 0.002743
- CaBdf1 BD2 Normalized (0 to 100%) YF mutant (CaBdf1 BD2 Y425F): 0.195%

Molecule: A Rme2a T Kme3 Q T A R Kme2 S T G G K A P R K Q
- CaBdf1 BD1 Normalized (0 to 100%) WT (CaBdf1 BD1 [6]): 0.145%
- CaBdf1 BD1 Raw data WT (CaBdf1 BD1 [6]; first of two raw-data columns): 0.002672
- CaBdf1 BD1 Raw data WT (CaBdf1 BD1 [6]): 0.003207
- CaBdf1 BD2 Normalized (0 to 100%) WT (CaBdf1 BD2 [7]): 0.296%
- CaBdf1 BD2 Raw data WT (CaBdf1 BD2 [7]; first of two raw-data columns): 0.01579
- CaBdf1 BD2 Raw data WT (CaBdf1 BD2 [7]): 0.001373
- CaBdf1 BD1 Normalized (0 to 100%) YF mutant (CaBdf1 BD1 Y248F): 0.554%
- CaBdf1 BD1 Raw data YF mutant (CaBdf1 BD1 Y248F; first of two raw-data columns): 0.005487
- CaBdf1 BD1 Raw data YF mutant (CaBdf1 BD1 Y248F): 0.006859
- CaBdf1 BD2 Normalized (0 to 100%) YF mutant (CaBdf1 BD2 Y425F): 0.244%
- CaBdf1 BD2 Raw data YF mutant (CaBdf1 BD2 Y425F; first of two raw-data columns): 0.002427
- CaBdf1 BD2 Raw data YF mutant (CaBdf1 BD2 Y425F): 0.003398
